In patent publication US20240408227A1:

Molecular target: recombinant human TfR1 (human) (UniProt P02786)
Test: SPR array (Carterra LSA), IgG captured, TfR as analyte, 25 C

recombinant human TfR1 (human), sequence (P02786 89-760 limits assumed): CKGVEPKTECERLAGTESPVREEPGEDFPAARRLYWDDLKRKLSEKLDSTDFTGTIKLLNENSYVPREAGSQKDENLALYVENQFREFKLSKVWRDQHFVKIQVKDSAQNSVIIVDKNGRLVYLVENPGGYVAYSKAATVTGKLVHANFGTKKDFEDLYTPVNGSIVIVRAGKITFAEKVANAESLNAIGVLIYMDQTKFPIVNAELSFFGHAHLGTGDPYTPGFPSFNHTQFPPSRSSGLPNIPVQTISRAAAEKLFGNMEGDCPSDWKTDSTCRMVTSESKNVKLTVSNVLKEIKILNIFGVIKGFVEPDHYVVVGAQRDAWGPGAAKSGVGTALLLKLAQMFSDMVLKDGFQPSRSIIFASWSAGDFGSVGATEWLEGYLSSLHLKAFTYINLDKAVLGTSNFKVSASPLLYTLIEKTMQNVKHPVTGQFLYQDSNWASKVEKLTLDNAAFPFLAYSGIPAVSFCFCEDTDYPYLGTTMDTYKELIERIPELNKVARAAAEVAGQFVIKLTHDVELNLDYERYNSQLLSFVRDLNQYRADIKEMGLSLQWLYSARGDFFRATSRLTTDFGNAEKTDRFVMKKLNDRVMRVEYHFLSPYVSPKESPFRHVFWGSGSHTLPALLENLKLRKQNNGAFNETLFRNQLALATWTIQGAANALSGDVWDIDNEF

Kd: 0.536 nM
kon: 774000 M⁻¹ s⁻¹
Substance: OKT9 control anti-TfR1 antibody (mouse IgG)
